Measured values taken from article doi:10.1101/2020.05.05.080093.

Assays:
Experiment in all cases: ITC
[1] = biological target: Heimdall_LC_3 TF-Vps4-MIT (Microtubule Interacting and Transport domain of Vps4 of Heimdallarchaeota_LC_3) (Heimdallarchaeota_LC_3)
[2] = biological target: Odin_LCB_4 TF-Vps4-MIT (Microtubule Interacting and Transport domain of Vps4 of Odinarchaeota_LCB_4) (Odinarchaeota_LCB_4)
[3] = biological target: Loki_GC14_75 TF-Vps4-MIT (Microtubule Interacting and Transport domain of Vps4 of Lokiarchaeum_GC14_75) (Lokiarchaeum_GC14_75)

dH1 (Sequential Binding Sites, first site) [1] [cal/mol] | dH2 (Sequential Binding Sites, second site) [1] [cal/mol] | dH [2] [cal/mol] | Substance | also measured
-473000 | 931000 |  | Heimdall_LC_3 TF-Vps2/24/46 (natural protein) | 
 |  | 392000 | Odin_LCB_4 Vps2/24/46 (natural protein) | 
 |  |  | Loki_GC14_75 TF-Vps2/24/46 (natural protein) | dH1 (Sequential Binding Sites, first site) [3]: -121000 cal/mol; dH2 (Sequential Binding Sites, second site) [3]: 422000 cal/mol
 |  |  | Loki_GC14_75 TF-Vps20/32/60 (natural protein) | dH [3]: 1.42e+06 cal/mol
2.78e+06 | -2.31e+06 |  | Heimdall_LC_3 TF-Vps20/32/60 (natural protein) | 
 |  | 331000 | Odin_LCB_4 TF-Vps20/32/60 (natural protein) | 
